Assay results: paper PMC2831474 (Archives of biochemistry and biophysics, 2010)

Biological target: preformed F-actin (chicken pectoral muscle skeletal actin polymerized with 0.1 M KCl) (chicken, UniProt P68139 1-377)
Test: co-sedimentation

B1: N-acetylated striated muscle long α-tropomyosin (stTM) (natural protein)
chain: not shown
modifications: N-acetylated
  stoichiometry N: 0.25 ± 0.03 tropomyosin/actin molar ratio
